The results in this text go back to paper PMC6915026.

This data set addresses alpha-synuclein (UniProt P37840 1-140). Briefly: interdigitated electrode current change (aptamer-GNP immobilized); 1 uM protein; titration 10 pM-1 uM, detection limit 10 pM (not a Kd); Aptamer-GNP on APTES-modified IDE, blocked with 1 M ethanolamine (30 min, RT); PBS listed as reagent, binding buffer, salt, pH and temperature not stated.

B1: antisynuclein aptamer (ssDNA)
DNA: ATAGTCCCATCATTCATTGTATGGTACGGCGCGGTGGCGGGTGCGTGGAGATATTAGCAAGTGTCA
Take B1: the binding result was “binds”.
